Molecular target: F-actin (non-muscle human actin, pre-polymerized in vitro) (human) (UniProt P60709)
Assay: co-sedimentation; constant protein (16 nM GST-ARN127(25), 150 nM GST-Htt exon 1(25)) with increasing F-actin (0-8 µM or 0-16 µM); gels quantified for percent bound; approximate Kd

Kd	Substance
2 µM	GST-Htt exon 1(25) (domain or fragment)
1 µM	GST-ARN127(25) (from UniProt P10275 1-127) (domain or fragment)

— article PMC2816219
